Consider 30 sequences from the Immune Epitope Database (IEDB).

A word on the Kd: it is the constant that tells how readily two partners part at equilibrium.

What all share (assay): IEDB peptide-MHC binding, purified MHC/competitive/radioactivity; filed as Kd, often an IC50 or EC50 that approximates it; ≥ and ≤ were set here for values at or beyond the usual limits of such assays
Experiment [1] has as its target HLA-A*31:01.
For experiment [2], the target named is HLA-A*11:01.
The target in experiment [3] is HLA-A*03:01.
Experiment [4] addresses HLA-A*33:01.
For experiment [5], the target named is HLA-A*68:01.
Setting [6] is: source organism: Dengue virus 4 Philippines/H241/1956.
[7] abbreviates: source organism: Dengue virus 1 Brazil/97-11/1997.
Where [8] appears, read: source organism: Vaccinia virus WR.
[9] abbreviates: source organism: SARS coronavirus Tor2.
Where [10] appears, read: source organism: Lassa virus Josiah.
Setting [11] is: source organism: Dengue virus 3 Martinique/1243/1999.
Setting [12] is: source organism: Dengue virus 3 Sri Lanka/1266/2000.
Setting [13] is: source organism: Dengue virus 2 Jamaica/1409/1983.

Bounds are passed on as bounds.

AAQRRGRIGR: the Kd in experiment [1] (setting [6]) was determined as 2.16 nM.

Consider AIKVLRGFKK, for which, in experiment [2] (setting [7]), the Kd was found to be 817 nM.

For the sequence ALFMYYAKR, the Kd came to 0.449 nM in experiment [1] (setting [8]); 66.1 nM in experiment [2] (setting [8]); 12.3 nM in experiment [3] (setting [8]); 32.5 nM in experiment [4] (setting [8]); 943 nM in experiment [5] (setting [8]).

With ASTISWMMK, the Kd in experiment [1] (setting [8]) was 1820 nM; in experiment [2] (setting [8]), 0.346 nM; in experiment [3] (setting [8]), 31.5 nM; in experiment [4] (setting [8]) it was at least 38900 nM; in experiment [5] (setting [8]), 588 nM.

In the case of ATSTRHPSK, the Kd in experiment [1] (setting [9]) is 623 nM; in experiment [2] (setting [9]), 9.8 nM; in experiment [3] (setting [9]), 0.599 nM; in experiment [4] (setting [9]), at least 77700 nM; in experiment [5] (setting [9]), 275 nM.

As to ATVVIGTSK, the figures for the Kd in experiment [1] (setting [9]), in experiment [4] (setting [9]) and in experiment [5] (setting [9]) were 1320 nM, at least 77700 nM and 101 nM, respectively.

Turning to CIFAFIDFSK, the Kd in experiment [1] (setting [8]) is 136 nM; in experiment [2] (setting [8]), 9.02 nM; in experiment [3] (setting [8]), 18.4 nM; in experiment [4] (setting [8]) it was 64.6 nM; in experiment [5] (setting [8]), 46.1 nM.

CSKHMDARY: the Kd in experiment [1] (setting [8]) is at least 45200 nM; in experiment [2] (setting [8]) it was 10100 nM; in experiment [3] (setting [8]), 19100 nM; in experiment [4] (setting [8]) it was at least 77700 nM; in experiment [5] (setting [8]) it was 18700 nM.

Turning to CTSQILLMR, the Kd in experiment [5] (setting [7]) was 16.7 nM.

DAKNDDWKKY: the dissociation constant Kd in experiment [1] (setting [8]) is at least 70000 nM; in experiment [2] (setting [8]), at least 69800 nM; in experiment [3] (setting [8]), at least 70100 nM; in experiment [4] (setting [8]), at least 70000 nM; in experiment [5] (setting [8]) it was at least 70200 nM.

Turning to DIDILQTNSR, the Kd is 711 nM in experiment [1] (setting [8]); at least 27300 nM in experiment [2] (setting [8]); 63.8 nM in experiment [3] (setting [8]); 314 nM in experiment [4] (setting [8]); 839 nM in experiment [5] (setting [8]).

Regarding DQYKDLCHMH, the Kd in experiment [1] (setting [10]) is at least 70000 nM; in experiment [2] (setting [10]), at least 69700 nM; in experiment [3] (setting [10]) it was at least 70000 nM; in experiment [4] (setting [10]), at least 70000 nM; in experiment [5] (setting [10]) it was at least 70100 nM.

For the sequence DSALTLHWFR, the figures for the Kd in experiment [4] (setting [6]) and in experiment [5] (setting [6]) were 3.27 nM and 13.1 nM, respectively.

Take DTEDIVSDSK: the Kd in experiment [1] (setting [8]) was 15800 nM; in experiment [2] (setting [8]), 1660 nM; in experiment [3] (setting [8]), 7660 nM; in experiment [4] (setting [8]), 3160 nM; in experiment [5] (setting [8]), 201 nM.

Take DVDTSASEIK: the equilibrium dissociation constant (Kd) was at least 27100 nM in experiment [1] (setting [8]); 2630 nM in experiment [2] (setting [8]); 4430 nM in experiment [3] (setting [8]); 18800 nM in experiment [4] (setting [8]); 135 nM in experiment [5] (setting [8]).

Consider DVISRRDQR, for which the Kd worked out at 68.2 nM in experiment [4] (setting [7]) and 66.3 nM in experiment [5] (setting [7]).

In the case of EATQLATLR, the Kd in experiment [4] (setting [11]) was determined as 94.7 nM; in experiment [5] (setting [11]), 15.9 nM.

In the case of EITAEWLWR, the Kd in experiment [4] (setting [12]) came to 11.4 nM; in experiment [5] (setting [12]), 114 nM.

On to ELGFNYPEY, for which the Kd was at least 77900 nM in experiment [1] (setting [8]); at least 66700 nM in experiment [2] (setting [8]); at least 39700 nM in experiment [3] (setting [8]); at least 77700 nM in experiment [4] (setting [8]); 8850 nM in experiment [5] (setting [8]).

In the case of ELYDTSPTKR, the Kd came to 1850 nM in experiment [1] (setting [8]); 10500 nM in experiment [2] (setting [8]); 756 nM in experiment [3] (setting [8]); 142 nM in experiment [4] (setting [8]); 1.52 nM in experiment [5] (setting [8]).

EMGANFRADR: the Kd in experiment [1] (setting [7]) is at least 70000 nM.

Consider ENKAWLVHR, for which, in experiment [4] (source organism: Dengue virus 2 16681-PDK53), the Kd turned out to be 7 nM.

As to ESKAKQLCY, the Kd was at least 77900 nM in experiment [1] (setting [8]); at least 77900 nM in experiment [2] (setting [8]); at least 78000 nM in experiment [3] (setting [8]); at least 77700 nM in experiment [4] (setting [8]); 15900 nM in experiment [5] (setting [8]).

As to FAEESYTYYY, the equilibrium dissociation constant (Kd) in experiment [1] (setting [8]) was at least 70000 nM; in experiment [2] (setting [8]) it was 916 nM; in experiment [3] (setting [8]), at least 26300 nM; in experiment [4] (setting [8]) it was at least 70000 nM; in experiment [5] (setting [8]) it was 543 nM.

For the sequence FFLMVLLIPE, in experiment [4] (setting [7]), the Kd turned out to be 208 nM.

Turning to FLAVFQSATK, the Kd in experiment [1] (setting [9]) was 10800 nM; in experiment [2] (setting [9]), 1610 nM; in experiment [3] (setting [9]) it was 34.3 nM; in experiment [4] (setting [9]), at least 22400 nM; in experiment [5] (setting [9]), 8.81 nM.

For the sequence FLRSIAMLK, the Kd in experiment [1] (setting [8]) was 153 nM; in experiment [2] (setting [8]), 213 nM; in experiment [3] (setting [8]), 2.04 nM; in experiment [4] (setting [8]) it was 611 nM; in experiment [5] (setting [8]), 107 nM.

With FTDPASIAAR, the results for the Kd in experiment [4] (setting [13]) and in experiment [5] (setting [13]) were 125 nM and 25.6 nM, respectively.

With FVCRRTFVDR, the Kd in experiment [1] (setting [7]) was at least 70000 nM; in experiment [4] (setting [7]), 65.2 nM.

For FVNEKYCIIK, the Kd is 6150 nM in experiment [1] (setting [8]); 226 nM in experiment [2] (setting [8]); at least 48600 nM in experiment [3] (setting [8]); 3920 nM in experiment [4] (setting [8]); 275 nM in experiment [5] (setting [8]).
